Measurements reported in patent US20230025129A1 (KYMAB, published 2023).
Changes are numbered by the printed parent chain.

B1: NORI-031 (antibody, human IgG4 S228P, lambda, V domains shown)
VH: QLQLQESGPGLVKPSETLSLTCTVSGGAISSSNYFWGWIRQSPGKGLEWIGSMYYTGITYYNPSLKSRVTISVDTSKNQLSLKVNSVTAADTAVYYCARQDGFRTGWFDPWGQGTLVTVSS
VL: SYELTQPPSVSVSPGQTATLTCSGDKLGDNYVCWFQQKPGQSPLLVMYQDTKRPSGIPERFSGSNSGNTATLTISGTQALDEADYYCQAWDSRTVVFGGGTKLTVLG
B2: NORI-030 (antibody, human IgG4 S228P, lambda, V domains shown)
VH: QVQLVESGGGVVQPGRSLRLSCAASGFTFSNFDMDWVRQAPGRGLEWVALISYDGSKKYYADSVKGRFTISRDNSKNTLYLQMNSLRGEDTAVYFCAKEGYGGYDGFDYWGQGTLVTVSS
VL: QSVLTQPPSVSEAPRQRVTISCSGSTSNIGNNAVNWYQQLPGKAPKLLISYDYVVSSGVSDRFSGSKSGTSASLAISGLQSADEADYYCSTWDDGLNGVVFGGGTKLTVLG
B3: NORI-032 (antibody, human IgG4 S228P, lambda, V domains shown)
VH: QVQLVQSGAEVRKPGAAVKVSCKASGYTFSSFGITWIRQAPGQGLEWMGWISAYNGISNSAQKVQGRVTMTTDTSTSTAYMELRSLRSDDSAVYYCARDRANRDALDVWGQGTKVTVSL
VL: SHELTQPPSMSVSPGQTASITCSGDELGDRYACWYQQKPGQSPVLVIYQDTKRPSGIPERFSGSISGNTATLTISGTQAMDEADYYCQAWDSSTVVFGGGTKLTVLG
B4: NORI-033 (antibody, human IgG4 S228P, lambda, V domains shown)
VH: QLQLQESGPGLVKPSETLSLTCTVSGDSISSHTYWWGWIRQPPGKGLEWIGSMFYSGSTYYNPSLKSRVVISVDTSRNQFSLKVRSVTAADTAVFYCARHNNWGMENYFDDWGQGTLVTVSS
VL: SYALTQPPSVSVSPGQTARITCSADALPDQYGYWYQQKPGQAPVLVIYKDSERPSGIPERFSGSSSGTTVTLTISGVQAEDEADYYCQSADSSGSYVVFGGGTKLTVLG
B5: NORI-028 (antibody, human IgG4 S228P, lambda, V domains shown)
VH: EVQLVESGGAVVRPGGSLRLSCAISGFILDDYGMNWVRQGPGKGLEWVAGISWNGDSTRYADSVKGRFTISRDNAQNSLYLQMNSLRAEDTALYFCAREYSGDFYYYYYGMDVWGQGTTVTVSS
VL: QSALTQPPSASGSPGQSVTISCTGTSSDVGFYNFVSWYQHHPGKAPKLMIYEVSKRPSGVPDRFSGSKSANTASLTVSGLQAEDEADYYCSSYAGSNNLVFGGGTKLTVLG
B6: NORI-029 (antibody, human IgG4 S228P, lambda, V domains shown)
VH: EVQLVESGGGLVKPGRSLRLSCTASGFTFGDYVMSWFRQAPGKGLEWVGFIRSKPYSETTEYAASVRGRFTISRDDSKSIAYLQMNSLKTEDTAVYYCTRALYDLLTGPWMGGDYFYALDVWGQGTTVTVSS
VL: B5 VL with F31D, F34Y, H40Q, A70G, S91K

target: T1, human MTP-2 expressed on HEK293 cells (human, UniProt Q8IU80 1-811); assay: cell-based or functional assay
T1 sequence: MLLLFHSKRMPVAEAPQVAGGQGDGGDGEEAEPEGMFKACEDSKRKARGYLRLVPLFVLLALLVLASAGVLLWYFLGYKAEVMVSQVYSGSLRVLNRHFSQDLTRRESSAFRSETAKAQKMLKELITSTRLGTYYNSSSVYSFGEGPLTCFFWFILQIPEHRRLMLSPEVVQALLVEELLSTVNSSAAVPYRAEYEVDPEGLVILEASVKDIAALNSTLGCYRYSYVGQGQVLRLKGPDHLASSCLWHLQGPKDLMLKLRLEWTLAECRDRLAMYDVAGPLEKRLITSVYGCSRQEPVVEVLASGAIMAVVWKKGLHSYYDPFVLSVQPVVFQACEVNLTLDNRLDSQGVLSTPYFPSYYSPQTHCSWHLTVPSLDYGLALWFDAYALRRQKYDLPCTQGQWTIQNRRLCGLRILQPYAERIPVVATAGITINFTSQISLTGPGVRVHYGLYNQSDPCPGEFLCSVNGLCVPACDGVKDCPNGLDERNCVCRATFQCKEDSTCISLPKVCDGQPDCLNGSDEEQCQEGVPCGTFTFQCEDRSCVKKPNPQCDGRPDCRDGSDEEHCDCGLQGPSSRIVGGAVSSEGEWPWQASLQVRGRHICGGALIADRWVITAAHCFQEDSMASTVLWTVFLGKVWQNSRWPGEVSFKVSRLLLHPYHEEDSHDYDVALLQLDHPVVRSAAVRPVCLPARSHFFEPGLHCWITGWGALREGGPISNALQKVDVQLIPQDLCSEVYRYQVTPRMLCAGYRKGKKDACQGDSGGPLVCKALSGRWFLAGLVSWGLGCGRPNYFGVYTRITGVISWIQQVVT

Row | Binder | Inhibition enzymatic activity human MTP2 on cells (IC50)
1 | B1 | 3510 pM
2 | B2 | 227 pM
3 | B3 | 1660 pM
4 | B4 | 206 pM
5 | B5 | 3850 pM
6 | B6 | 243 pM

target: T2, human matriptase-2 ECD protein his tag (human, UniProt Q8IU80 78-811); assay: cell-based or functional assay
T2 sequence: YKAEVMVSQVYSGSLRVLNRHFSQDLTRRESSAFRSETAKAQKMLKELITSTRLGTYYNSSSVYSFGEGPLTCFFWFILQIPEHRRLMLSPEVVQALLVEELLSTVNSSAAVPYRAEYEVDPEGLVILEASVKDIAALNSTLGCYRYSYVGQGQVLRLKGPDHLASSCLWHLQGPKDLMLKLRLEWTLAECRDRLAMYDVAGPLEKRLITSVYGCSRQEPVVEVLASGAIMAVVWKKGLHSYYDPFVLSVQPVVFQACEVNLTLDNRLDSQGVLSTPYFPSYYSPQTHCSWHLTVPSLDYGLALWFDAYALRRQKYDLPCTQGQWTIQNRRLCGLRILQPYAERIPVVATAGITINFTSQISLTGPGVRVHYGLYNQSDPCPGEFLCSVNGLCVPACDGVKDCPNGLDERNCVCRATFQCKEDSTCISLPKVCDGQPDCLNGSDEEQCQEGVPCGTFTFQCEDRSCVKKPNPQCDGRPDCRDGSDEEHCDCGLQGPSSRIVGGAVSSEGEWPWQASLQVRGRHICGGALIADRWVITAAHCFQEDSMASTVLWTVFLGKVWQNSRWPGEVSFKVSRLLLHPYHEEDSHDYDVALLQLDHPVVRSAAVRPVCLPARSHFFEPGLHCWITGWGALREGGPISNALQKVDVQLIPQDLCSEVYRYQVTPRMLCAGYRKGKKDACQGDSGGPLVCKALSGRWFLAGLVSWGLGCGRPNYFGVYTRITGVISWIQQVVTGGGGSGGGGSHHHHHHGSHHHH

Row | Binder | Inhibition enzymatic activity human MTP2 protein (IC50)
7 | B1 | 10.3 nM
8 | B2 | 1.88 nM
9 | B3 | 1.6 nM
10 | B4 | 2.84 nM
11 | B5 | 11.8 nM
12 | B6 | 2 nM

target: T3, mouse matriptase-2 ECD protein his tag (mouse, UniProt Q9DBI0 80-811); assay: cell-based or functional assay
T3 sequence: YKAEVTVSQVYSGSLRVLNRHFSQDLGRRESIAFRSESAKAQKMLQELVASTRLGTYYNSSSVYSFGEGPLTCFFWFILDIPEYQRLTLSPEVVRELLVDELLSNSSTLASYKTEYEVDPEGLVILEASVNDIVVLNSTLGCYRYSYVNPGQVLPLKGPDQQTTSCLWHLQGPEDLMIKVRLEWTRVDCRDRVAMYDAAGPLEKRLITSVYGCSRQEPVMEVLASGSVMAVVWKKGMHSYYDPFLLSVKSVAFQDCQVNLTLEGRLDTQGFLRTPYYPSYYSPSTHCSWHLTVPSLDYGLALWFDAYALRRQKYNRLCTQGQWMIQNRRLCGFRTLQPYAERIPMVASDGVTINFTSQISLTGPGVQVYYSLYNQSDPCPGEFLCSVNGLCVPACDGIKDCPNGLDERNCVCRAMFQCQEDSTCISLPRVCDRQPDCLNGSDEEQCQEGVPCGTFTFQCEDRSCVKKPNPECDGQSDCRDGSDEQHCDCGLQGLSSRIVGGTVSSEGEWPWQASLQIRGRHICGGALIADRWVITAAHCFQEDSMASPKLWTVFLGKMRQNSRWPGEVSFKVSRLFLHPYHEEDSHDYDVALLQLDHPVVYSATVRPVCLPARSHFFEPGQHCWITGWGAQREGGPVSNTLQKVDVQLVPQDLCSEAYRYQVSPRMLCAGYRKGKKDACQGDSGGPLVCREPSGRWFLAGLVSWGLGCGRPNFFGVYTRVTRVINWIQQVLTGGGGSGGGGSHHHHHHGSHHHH

Row | Binder | Inhibition enzymatic activity mouse MTP2 protein (IC50)
13 | B1 | 27 nM
14 | B2 | 6.66 nM
15 | B3 | 0.716 nM
16 | B4 | 1.73 nM
17 | B5 | 8.96 nM
18 | B6 | 9.35 nM
